Experimental data: a protein production outcome set (Wang et al. 2014)

Assay: label from the status in PepcDB records

Row | Sequence | protein production
1 | MEKKYIMFIIAMAISFLTTPIVRKFAKHIKAIDIPKDKRRVHKKPIPKIGGLAIYLAFVLVLVLKKGHLEKAEMGIIFGGGIIVLGGFIDDLKCLRPLYKVLFQLLGAFVLIGFGLRISMVTNPLSNSFSYIHINNFIGIAITIIWIIGVTNAFNLIDGLDGLSAGVGFISSVTIAIVAFLNGPTRSEAEILSVILAGSILGFLPYNFNPASIFMGDTGAQFLGFALAAISIQGAIKSASAVVLAVPILVLGLPIYDTIFAIIRRKINGKPITQADRGHLHHRLLDMGLSQKQAVLIMYFISAIMGLVAVIAMQLTNTKAYVIFAGAVICIVGLAWKFGLFKHK | failed
2 | MEKLGAVLFDDPNLSMNRTMACSTCHMQAAGFSDARESEKVGRDVSLGDDGISLGDRNAPTAAYAKFTPPFGKNAAGEYIGGQFWDGRASLLEDQAGGPPLNPVEMGMPDKAAVVKRLRENPDYVAAFGTQFGKDVFASDESAYAAMTKALASFERSDEFSTFDSKYDRFLRGEEKLTDQEELGRVLISSTQFTNCNTCHEIRGAKGLEDGLFTNHKYFNIGVPANTSVRAVNGSKPDAVDLGLAQNPAVAGDPAQRGKFKVPTLRNVAVTGPYMHNGVFKDLRTVVLFYVKYKSKKPSRQINPETGKTWDAPEVPENIAMTELTSAPALDDKRVDAIVAFLKTLTDRRYEHLLPKEDGQTAAPTAQPVLSVTPKAP | failed
3 | MEKLTTLTGVAVPLRRSNVDTDQIIPAVFLKRVKKSGFDDALFYAWRRDPEFVLNKPEYKQGKILVAGPDFGIGSSREHAVWALHDYGFRVVISSRFADIFYGNTAKNGVLAAIMPQESIELLWKLLDEEPGREMTVSLEDRTVTCGDVTLPFEVNDYTRWRLMNGYDDIDLTLQHEDDIIAYEKMRAEKFPFKPKTLPVKREPEQPIESAREGEYPDWQGPLADRGII | failed
4 | MEKMYNVGKIVNTHGLIGEIRVIATTDFPEERFQVGNTVYLFEKNSKKPEKLIIRSHRKHKNFDLLMFEGLTGIHQVERMKEGVLKIKEAQLTDLEENEFYFHEIIGTVVTTDGEELGEITEILTPGANDVWVVKGADKKEKLIPYIADVVKDINTNDKKITIEVMEGLLDLEHHHHHH | failed
5 | MEKNFILSVGMSVMFLFISSIKTVQAQQLGIGVKTELNGKVRFCNYDEAYFMPDTNTRIKVTGLEIAYDSSLNYYDIFVNVKGDKVNLHIKYSNGGEGAYIYKGIDRISKMDVVVTTKKKLSLYANNYGVNSYKEVESSVGIIIVFPKTYMISSIVPIKNKVETVNELSTQLRKGVITDSDGYTNIRKSNSVNSEIIGKIVDREVFTYWETNDNWYIVQTAKGIKGYVHKSRIKPVEERNEQKIRYYKVKNGDKIQDIAEKLGVSIDTICKLNRVKITTVLREGQALRISR | failed
6 | MEKNQSDDDGTALIFLGTGCSGAVPDFRCLLQPSDPPCHVCSQSLSLLPHLNPNYRCNTSLLIDYCSKEEDGRHKYILIDVGKSFREQIILTHEHADAVHGLDEIRSLQPRGATIVDTDPLPVFLSQFTMESIATRFPYLVEKKVKEVPRRVSLLDWKNIEENCDEPFAASGLSFTPLPVMHGEDYIALGFLFGDKSKVAYISDVSRIPPSTEYAISKAGAGQLDLLILDTNIPWKRGPHPTHICFTEALEILKRLCPKRALLTGMTHEFDHHEYNEILAEWSLRDYVDF | failed
7 | MEKPDINVAEAWEQYWNKTLVNATPVLWDANVERAVVVDLPRFQSFFDTELPLIDFACGNGTQTKFLSQFFPRVIGFDVSKTALEMASKENTAANISYRLLDGLVPEQAAQIHSEIGDANIYMRTGFHHIPVEKRELLAQSLRTLLGKQGVMYLIELGTGCIEFFNSLLEKYGKLPYELSLVMEHGIRPGIFTTEDIELYFPDFEILSQGESLFQSIHKLPDGNYATPPAFWAVIKRHLEHHHHHH | not failed
8 | MEKPGGFWIPKKSNKESSWEELAFAEDDAAGSLWPPRSYTCSFCRREFKSAQALGGHMNVHRRDRARLKQADDQYLFPKSSSSPEYPSHKDSDNIHETSCYTLVFNTKPNYFKTQHSCVIDLSSSSSLPYLTPSRVSSGLPGKQHTSSSPPSFVVEPSKNSKYIPSSSPWSCPSTVVEQKSCDLYEIPAMEGEKKRKTESDVPKIGHKAKLSLGNTTDLSVSMNLVIHQSFPITAHGSDEEIGRVDIRKRRRRHESPSQQSIFISSLSCKSDIITRNEESKHKGDRFEDLDLELRLGTDPPKGI | failed
9 | MEKQNLKNTEVNLIYGVDDDLDLPKKVLFGLQHIFAAFGGIIVVPLVIATSLGFDSKVTTALISASILGSGLATIIQAKGVGKVGARVACIMGTDFTFVSPAISVGSVLGLPGIIGATILGSLFEVILSFFIKPLMKFFPPLVTGTVVALIGLTLLPVSIDWAAGGAGSANYASLENLAVAMFVLVITLLLNNYGKGMISSASILIGIVVGYIVCIPLGLVDFTPVKEASWLSFPKILEFGVTFDAKAVMAFIPAYFVATIGTVGCLKAIGETSNIDIGDKRVAAGVLSDGVGSALGGLVGSCPNTSFSQNIGIISLTKVASRHVAVMAGILLVILGFLPKVAAIITGIPNPVLGGVGIMMFGTVAAAGIRTLSNIKLTERNLLIIAISMGLGLGVTFRPDVIHNLPEAIRMIFSSGISTGTIAALILNAVLKESPTSMEFENMYDEETKAS | failed
10 | MEKTIIAALLMLISLISYAQGLMWTAKAELNMSSMSNVEESKMHPGFYAGIGAGYVIDETRSVRPSLLFTMKGVKQDYKF | failed
11 | MEKVTKMISRMMVRVVTVAFALSLVAVACHEAEARAGGGRSFGSRGTRTYRPPTRTVDPAPASRPQPAPAVPQTFPQQRQGGSFLRSMAGGIVGGLLGGMLFRSLGFAGPGAGGVGLFDILLIGGILYLVYRFVASRRREAAATAGRAPDWSREEPVTPQQYRYGQPAESVPAAGADSGLAHVRQMDGSFSEEQFRQLAQDVFFRVQGAWTRRDLSSAREVLAPEMERALQGDVAELKARGQVNRLENIAVRQVELVEAWQEEGCDFITVRFLANLLDYTTDEEGRVLSGSDREPVKFEEFWTFTRPVGPNPWKLSAIQQA | failed
12 | MEKYIHSVEDYHRLISYLENNLNYEDSVVNHVIYVIAKTGMRYGEIIGLTNNDTSLDEHYLHTYKRYNTSTWKWTNAKNESSKRYIPIDDKIVAALSNMIKERERINSLLRIKNKEEFLFFHYGLEHGIPSVATVNKALKKILKKLDIEPIITTKGLRHTYGSYLLHNNIDMGVVARILGHKDIQMLIQVYGHTLTEKIDKEFKEVEQIMNRILEHHHHHH | failed
13 | MELDDAYANGAYIEGAADYPPRWAASAEDFRNSLQDRARLNLSYGEGDRHKFDLFLPEGTPVGLFVFVHGGYWMAFDKSSWSHLAVGALSKGWAVAMPSYELCPEVRISEITQQISQAVTAAAKEIDGPIVLAGHSAGGHLVARMLDPEVLPEAVGARIRNVVPISPLSDLRPLLRTSMNEKFKMDADAAIAESPVEMQNRYDAKVTVWVGGAERPAFLDQAIWLVEAWDADHVIAFEKHHFNVIEPLADPESDLVAVITA | not failed
14 | MELELDDDVFFADISKQLNLLITDEDEQNPISLSSSVSFQGLFRGNYQTSATPYMMYNEQINYNVIRESKGTGVFIPRSSQPRRKHNHHPHQKKQGRFIGSFIPKQQFPHHGHDNNLTTLNNNNQESITFHHASTNPRRTYRDAASLFT | failed
15 | MELFTEAWAQAYCRKLNESEAYRKAASTWEGSLALAVRPDPKAGFPKGVAVVLDLWHGACRGAKAVEGEAEADFVIEADLATWQEVLEGRLEPLSALMRGLLELKKGTIAALAPYAQAAQELVKVAREVA | not failed
16 | MELIEVQEGKAKILIPKAESIYDSPVFYNPRMALNRDIVVVLLNILNPKIVLDALSATGIRGIRFALETPAEEVWLNDISEDAYELMKRNVMLNFDGELRESKGRAILKGEKTIVINHDDANRLMAERHRYFHFIDLDPFGSPMEFLDTALRSAKRRGILGVTATDGAPLCGAHPRACLRKYLAVPLRGELCHEVGTRILVGVIARYAAKYDLGIDVILAYYKDHYFRAFVKLKDGARKGDETLEKLGYIYFDDKTGKFELEQGFLPTRPNAYGPVWLGPLKDEKIVSKMVKEAESLSLARKKQALKLLKMIDQELDIPLFYDTHAIGRRLKIETKKVEEIISALREQGYEATRTHFSPTGIKTSAPYEVFIETIKRI | not failed
17 | MELIRFSISIPSKLLEKFDQIIEEIGYENRSEAIRDLIRDFIIRHEWEVGNEEVAGTITIVYNHDEGDVVKALLDLQHEYLDEIISSLHVHMDEHNCLEVIVVKGEAKKIKMIADKLLSLKGVKHGKLVMTSTGKELV | not failed
18 | MELKMKTRALVIGLGSMGKRRVRNLLALGNIDVFGFDVRADRNEEASSKYQITTFDDVQKAFEDVKPEVVVISTPPQLHMTYANMCFDARVPCFIEASVTDIEEIRELGKKALEASLVIAPSCTMRYFPGPKKVKELLEQNVIGSPLSVNYQTGQYLPDWHPWEDIQDFYVSKRESGGAREIVPFELTWLNDLFSHDVKALASAVAKQTDMNADIDDIYHCLLQYDSGVLLNLTVEVISRPLATREMLILGSKGKIKFSADSNSVSYCNLETDGWVESTWEEGTVESQYINPEEPYINEMKDFVTAALAGDQSLFPNNLQDDVKVLEVLEALEEVDQLKGNKA | failed
19 | MELLLGIVIVVTCWMVVRIIRSSKNQEGYKRWRAGNYASENPYAKEKASGPLSQGLFSKRVRTTGVRRFDDGAIRWCANLLATEESRLREVLDYIPRQYTCFHVRKRSGGFRYISAPAGDFRSMQQTIYHRILLLANIHPAVTGFCPGKSVSDNARVHLGRKNVLKVDLHDFFPSIRSPRVRAAFREMGYSRPIAKVLAELCCLRCCLPQGAPTSPALSNIIAYPMDKKMMALAGEYGLVYTRYADDLTFSGDYLPKDEVLVRIHRIIREEGFTMNVKKTRFLSEHKRKIITGVSVSSGKKMTLPKVKKREIRKNVHYVLTKGLVGHQEHIGSTDPVYLKRLLGSLCYWRSIEPDNRYVSDSITALKRLM | failed
20 | MELNISESRSRSIRCIVKLGGAAITCKNELEKIHDENLEVVACQLRQAMLEGSAPSKVIGMDWSKRPGSSEISCDVDDIGDQKSSEFSKFVVVHGAGSFGHFQASRSGVHKGGLEKPIVKAGFVATRISVTNLNLEIVRALAREGIPTIGMSPFSCGWSTSKRDVASADLATVAKTIDSGFVPVLHGDAVLDNILGCTILSGDVIIRHLADHLKPEYVVFLTDVLGVYDRPPSPSEPDAVLLKEIAVGEDGSWKVVNPLLEHTDKKVDYSVAAHDTTGGMETKISEAAMIAKLGVDVYIVKAATTHSQRALNGDLRDSVPEDWLGTIIRFSK | failed
21 | MELPAVGEHVFAVESIEKKRIRKGRVEYLVKWRGWSPKYNTWEPEENILDPRLLIAFQNRERQEQLMGYRKRGPKPKPLVVQVPTFARRSNVLTGLQDSSTDNRAKLDLGAQGKGQGHQYELNSKKHHQYQPHSKERAGKPPPPGKSGKYYYQLNSKKHHPYQPDPKMYDLQYQGGHKEAPSPTCPDLGAKSHPPDKWAQGAGAKGYLGAVKPLAGAAGAPGKGSEKGPPNGMMPAPKEAVTGNGIGGKMKIVKNKNKNGRIVIVMSKYMENGMQAVKIKSGEVAEGEARSPSHKKRAADERHPPADRTFKKAAGAEEKKVEAPPKRREEEVSGVSDPQPQDAGSRKLSPTKEAFGEQPLQLTTKPDLLAWDPARNTHPPSHHPHPHPHHHHHHHHHHHHAVGLNLSHVRKRCLSETHGEREPCKKRLTARSISTPTCLGGSPAAERPADLPPAAALPQPEVILLDSDLDEPIDLRCVKTRSEAGEPPSSLQVKPETPASAAVAVAAAAAPTTTAEKPPAEAQDEPAESLSEFKPFFGNIIITDVTANCLTVTFKEYVTV | failed
22 | MELREVAAVSGRGGLFKILKPTKNGVILEAIDPSKKRFVAGANERVSILNEISIYTTDKDGSVPLESVLHKIHAKYGADTKITGKSSNDELGNFLSSILPEYDREKVYHSDIKKLANWYAILQANFPELLVAKKEAAPKTEAKPAEAKEEKVKAVKEEKAEAPAPAAKKAAAKKVKEVSEEATEKPAAKKAAAKKTAKAKGE | failed
